Experimental data published in patent US20090169520A1, “Compounds, Pharmaceutical Compositions and Therapeutic Methods of Preventing and Treating Diseases and Disorders Associated With Amyloid Fibril Formation” (YISSUM RESEARCH DEVELOPMENT COMPANY OF THE HEBREW …, priority 2005, published 2009).
Ends that are not written are not given here.

How the values were obtained:
Aβ (1-40) peptide = biological target: T1, Aβ (1-40) peptide (Homo sapiens, UniProt P05067); experiment: In vitro formation of amyloid fibril from Aβ (1-40), Thioflavin T fluorescence; type: biochemical; conditions: for effect on Aβ fibril formation (in words): 33 μM Aβ, ThT fluorescence; for Lag (fold change) / Rate (fold change): relative to No addition, asterisk = statistically significant
T1 construct: synthetic Aβ (1-40) peptide; purchased Biosource, Camarillo, Calif., USA; host or cells: chemical synthesis
Source text: In vitro formation of amyloidfibril—In vitro formation of amyloid fibril was in the presence of the synthetic Aβ (1-40) peptide (Biosource, Camarillo, Calif., USA) as a precursor. The reporter molecule was Thioflavin T (ThT) (Sigma, Cat. No. T-3516, Jerusalem, Israel), a benzothiazole dye that undergoes a shift in its excitation spectrum (from 340 nm to 450 nm) when interacting with β-sheet amyloid structures. The resultant ThT fluorescence signal is proportional to the amount of amyloid formed (LeVine, 1993). A stock solution of Aβ in dimethylsulfoxide (DMSO) was diluted with phosphate-buffered saline (PBS) containing 0.02% Na-Azid to a final concentration of 162 μM and 20 μl of the diluted Aβ solution was placed in each well of a 96 multiwell plate (Nunc, Roskilde, Denmark). After 20 minutes of pre-incubation at room temperature of the Aβ samples (20 μl), 80 μl of 1.25 μM ThT in 50 mM glycine buffer, pH 8.5, was added. Incubation was with shaking at 200 rpm for 6 to 8 hours at the noted temperatures. Fluorescence was measured continuously or at 30-40 minute intervals, using a Spectro-fluorometer (Tecan, Maennedorf, Switzerland). Excitation and emission wavelengths were 450 nm and 485 nm, respectively. Enhancement of the fibrillation process by the different combinations of water-dissolved cholinesterases and peptides mimicking fragments thereof, was evaluated by dissecting the time curves into two stages: the lag before the onset of the fluorescence increase (the nucleation process) and the average rate of fluorescence increase at several time points (rate of fibrils formation). Statistics analysis was performed using the Kaleidagraph Software (Reading, Pa., USA).
BChE attenuates amyloid fibrils formation—Amyloid fibril (Aβ) formation was quantified by measuring changes in ThT fluorescence. As predicted, Aβ fibrils were spontaneously formed in vitro provided that the Aβ peptide was present above 5 μM. […] Reactions were performed in the absence or presence of increasing concentrations of purified human BChE (SEQ ID NO:2; FIG. 1a), recombinant ACHE-S (SEQ ID NO:6; FIG. 1b) or both (FIGS. 1c and d). […] Due to the complex kinetics of the fibril formation process the apparent rate of change in ThT fluorescence was repeatedly determined during the exponential phase of increase in its signal (at 390±20 minutes). […] In contrast, addition of similar doses of AChE to Aβ, predictably shortened by half the lag time prior to fibril formation, again in a dose dependent manner (FIG. 1e). The lag period therefore decreased from 240 minutes to 150 minutes and the maximal rate of fibril formation increased from 0.057 to 0.116 fluorescence units (FU)/min for Aβ alone as compared to Aβ in the presence of 0.36 μM AChE-S (FIG. 1b and Table 7, hereinbelow). When increasing doses of hBChE were added to a combined mix of 33 μM Aβ with 0.36 μM AChE-S, a dose-dependent interference with the fibril formation process was observed (FIG. 1c and 2a). Thus, BChE is capable of reducing the rate of fibrillation of Aβ alone, or Aβ which is formed in the presence of AChE.

[1] = Solubility in water for CD measurements; type: physicochemical; conditions: up to the concentration required for CD tests (1×10^−4 M); HFIP used instead
Description: Circular Dichroism (CD) measurements—For circular dichroism (CD) measurements, ASP peptides were dissolved in double distilled water (DDW) to a final concentration of 1×10^−4 M. To reach this concentration, as required for the CD measurements, BSP had to be dissolved in 1,1,1,3,3,3-hexafluoro-2-propanol (HFIP). Direct CD spectra were recorded at room temperature using a CD Jasco J-810 Spectropolarimeter (Easton, Md., USA) with a 1 mm path length cell. Recordings were at 0.5 nm intervals in the spectral range 185-260 nm.
Molecular modeling points at putative structural differences between BSP and ASP—In search for structural differences between the BSP and ASP peptides, the circular dichroism (CD) properties of the synthesized series of BSP and ASP peptides were determined (FIG. 4). […] The helical features observed for ASP40 are in line with reports of others (Cottingham et al., 2003).

T1 sequence (P05067 672-711 limits assumed): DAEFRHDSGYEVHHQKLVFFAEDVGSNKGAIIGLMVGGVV

Substance | effect on Aβ fibril formation (in words) (Aβ (1-40) peptide) | Lag (fold change) (Aβ (1-40) peptide) | Rate (fold change) (Aβ (1-40) peptide) | solubility in water (in words) [1]
ASP23: synthetic AChE-S C-terminal peptide, mimics residues 592-614 in hAChE [reference compound] | no significant effect on amyloid formation | 1.1 fold change | 1.2 fold change | 
ASP40: synthetic AChE-S C-terminal peptide, mimics residues 575-614 in hAChE (DTLDEAERQWKAEFHRWSSYMVHWKNQFDHYSKQDRCSDL; ASP40 Synthetic peptide) [reference compound] | failed to show any significant capacity to activate or inhibit fibrillation | 1.1 fold change | 0.8 fold change | 
GNIDEAEWEWKAGFHRWNNYMMDWKNQFNDYTSKKESCVGL [BSP41] |  |  |  | difficulties to solubilize
